Assay results from US6608174B1, “Radiolabeled vasoactive intestinal peptide analogs for diagnosis and radiotherapy” (Dabur Research Foundation, priority 2000, dated 2003).
Square brackets hold non-standard residues; d marks the D form. Peptide text beside a SMILES is read from it. * marks the point of attachment. DTPA = O=C(O)CN(CCN(CC(=O)O)CC(=O)O)CCN(CC(=O)O)CC(=O)*; dPhe(4-Cl) = N[C@H](Cc1ccc(Cl)cc1)C(=O)O; Aib = CC(C)(N)C(=O)O; Ahx = NCCCCCC(=O)O

System: human adenocarcinoma tumor
Set-up: species or system NIH nu/nu nude mice
Conditions: mouse, in vivo, iv
Source text: Tc-99m labeled peptide (SEQ ID NO: 10) was used to image tumors induced subcutaneously in the abdomen of NIH nu/nu nude mice. Following intravenous administration in human adenocarcinoma tumor bearing nude mice, images were taken at different time intervals post […], using a conventional gamma camera. […] The results are shown in FIG. 1 which clearly depicts that the accumulation of Tc-99m labeled VIP analog is high in tumor (indicated with arrow) as compared to the accumulation in viscera (unmarked dots) after 3 hours of injection.

CC[C@H](C)[C@H](NC(=O)[C@H](CO)NC(=O)[C@H](CC(N)=O)NC(=O)[C@H](CC(C)C)NC(=O)[C@H](Cc1ccc(O)cc1)NC(=O)[C@H](CCCCN)NC(=O)[C@H](CCCCN)NC(=O)[C@@H](NC(=O)[C@H](C)NC(=O)[C@H](CC(C)C)NC(=O)[C@H](CCC(N)=O)NC(=O)[C@H](CCCCN)NC(=O)[C@H](CCCNC(=N)N)NC(=O)[C@H](CC(C)C)NC(=O)[C@H](CCCNC(=N)N)NC(=O)[C@@H](NC(=O)[C@H](Cc1ccc(O)cc1)NC(=O)[C@H](CC(N)=O)NC(=O)[C@H](CC(=O)O)NC(=O)[C@@H](NC(=O)[C@@H](Cc1ccc(Cl)cc1)NC(=O)[C@@H](NC(=O)C(C)(C)NC(=O)[C@H](CC(=O)O)NC(=O)[C@H](CO)NC(=O)[C@H](Cc1c[nH]cn1)NC(=O)CCCCCNC(=O)CN(CCN(CCN(CC(=O)O)CC(=O)O)CC(=O)O)CC(=O)O)C(C)C)[C@@H](C)O)[C@@H](C)O)C(C)C)C(=O)N[C@@H](CC(C)C)C(=O)N[C@@H](CC(N)=O)C(N)=O [Tc-99m labeled peptide (SEQ ID NO: 10), metal not drawn] ({DTPA-Ahx}-HSD[Aib]V[dPhe(4-Cl)]TDNYTRLRKQLAVKKYLNSILN-NH2)
accumulation in liver and kidney: little accumulation in liver and kidney | blood clearance: rapid blood clearance
